The record followed here is patent US20170137467A1 (CHROMOTEK, published 2017).

Holding throughout (experiment): positional peptide library pulldown on immobilised Nb, LC-MS of supernatant; signal ratio to control GFP-Nb (1 = not captured, near 0 = captured)
One experiment deals with T1, BC2T Q12V.
T1 construct: positional scanning library member
T1 peptide: Ac-PDRKAAVSHWQV-NH2
The source says: (§1) In total, 12 different BC2T libraries displaying all 20 proteinogenic amino acids in one single position of the peptide were used in immunoprecipitation experiments. […] The direct comparison with the GFP-Nb made it possible to determine the quantitative degree of peptide capture without the need of labeled standards. […] The more peptide was captured the more the value approximates 0. It was not possible to discriminate between isoleucine (I) and leucine (L) peptide versions since these peptides are isobaric.
(§2) To investigate the binding specificity of the BC2T and derived mutants peptide libraries for each amino acid position of the sequence […] (SEQ ID NO:4) were synthesized with acetyl and amide groups located at the N-termini or C-termini respectively (Intavis). […] Incubations were performed in 300 μl PBS/0.01% CHAPS for 1 h on a HulaMixer (Life Technologies). Subsequent to a centrifugation step 10 μl supernatant were analyzed in a LC-MS procedure. Peptides were separated using an UltiMate3000 RSLCnano System (Thermo Scientific), composed of a C18 PepMap100μ-Precolumn (300 μm×5 mm; particle size: 5 μm; pore size: 100 Å—Thermo Scientific) and a C18 analytical column (Acclaim Rapid Separation LC (RSLC) Column: 150 mm×5 mm; particle size: 2.2 μm; pore size: 100 Å—Thermo Scientific). A step gradient was applied starting at 8% and ending after 20 min at 30% eluent B (80% acetonitrile, 20% H₂O, 0.1% formic acid).

A further experiment addresses T2, BC2T H9Q.
T2 construct: positional scanning library member
T2 peptide: Ac-PDRKAAVSQWQQ-NH2
Source text: as §1, §2

The target in another experiment is T3, BC2T S8M.
T3 construct: positional scanning library member
T3 peptide: Ac-PDRKAAVMHWQQ-NH2
Source text: as §1, §2

The next experiment addresses T4, BC2T S8(I/L1) (N-terminal acetyl; C-terminal amide).
T4 construct: positional scanning library member; I or L not resolved
Source text: as §1, §2

In another experiment the target is T5, BC2T S8W.
T5 construct: positional scanning library member
T5 peptide: Ac-PDRKAAVWHWQQ-NH2
Source text: as §1, §2

A further experiment addresses T6, BC2T Q11C(Abu) (SMILES …).
T6 construct: positional scanning library member
T6 peptide: Ac-PDRKAAVSHW[GABA]Q-NH2
Source text: as §1, §2

The target in another experiment is T7, BC2T W10G.
T7 construct: positional scanning library member
T7 peptide: Ac-PDRKAAVSHGQQ-NH2
Source text: as §1, §2

For the next experiment, the target named is T8, BC2T Q11(I/L1) (N-terminal acetyl; C-terminal amide).
T8 construct: positional scanning library member; I or L not resolved
Source text: as §1, §2

The target in a further experiment is T9, BC2T H9W.
T9 construct: positional scanning library member
T9 peptide: Ac-PDRKAAVSWWQQ-NH2
Source text: as §1, §2

The target in a further experiment is T10, BC2T W10P.
T10 construct: positional scanning library member
T10 peptide: Ac-PDRKAAVSHPQQ-NH2
Source text: as §1, §2

Another experiment concerns the target T11, BC2T S8(I/L2) (N-terminal acetyl; C-terminal amide).
T11 construct: positional scanning library member; I or L not resolved
Source text: as §1, §2

A further experiment deals with T12, BC2T Q11V.
T12 construct: positional scanning library member
T12 peptide: Ac-PDRKAAVSHWVQ-NH2
Source text: as §1, §2

A further experiment deals with T13, BC2T W10N.
T13 construct: positional scanning library member
T13 peptide: Ac-PDRKAAVSHNQQ-NH2
Source text: as §1, §2

For a further experiment, the target named is T14, BC2T Q12R.
T14 construct: positional scanning library member
T14 peptide: Ac-PDRKAAVSHWQR-NH2
Source text: as §1, §2

For the next experiment, the target named is T15, BC2T Q12(I/L1) (N-terminal acetyl; C-terminal amide).
T15 construct: positional scanning library member; I or L not resolved
Source text: as §1, §2

For the next experiment, the target named is T16, BC2T W10M.
T16 construct: positional scanning library member
T16 peptide: Ac-PDRKAAVSHMQQ-NH2
Source text: as §1, §2

A further experiment deals with T17, BC2T H9Y.
T17 construct: positional scanning library member
T17 peptide: Ac-PDRKAAVSYWQQ-NH2
Source text: as §1, §2

For a further experiment, the target named is T18, BC2T S8H.
T18 construct: positional scanning library member
T18 peptide: Ac-PDRKAAVHHWQQ-NH2
Source text: as §1, §2

In the next experiment the target is T19, BC2T Q11N.
T19 construct: positional scanning library member
T19 peptide: Ac-PDRKAAVSHWNQ-NH2
Source text: as §1, §2

Another experiment deals with T20, BC2T Q12N.
T20 construct: positional scanning library member
T20 peptide: Ac-PDRKAAVSHWQN-NH2
Source text: as §1, §2

A further experiment deals with T21, BC2T H9R.
T21 construct: positional scanning library member
T21 peptide: Ac-PDRKAAVSRWQQ-NH2
Source text: as §1, §2

Residue numbers refer to the chain shown, from its start. Square brackets hold non-standard residues; d marks the D form. GABA = NCCCC(=O)O

B1: BC2 nanobody (VHH)
VHH: QVQLVESGGGLVQPGGSLTLSCTASGFTLDHYDIGWFRQAPGKEREGVSCINNSDDDTYYADSVKGRFTIFMDNAKDTVYLQMNSLKPEDTAIYYCAEARGCKRGRYEYDFWGQGTQVTVSS
notes: immobilised on beads in this assay; also called BC2-Nb; BC2 nanotrap (immobilised)
Consider B1, for which the ratio came out at 0.1 with BC2T Q12V; 0.2 with BC2T H9Q; 0.6 with BC2T S8M; 0.4 with BC2T S8(I/L1); 0.6 with BC2T S8W; 0.1 in the experiment with BC2T Q11C(Abu). Besides, the ratio turned out to be 1.2 in the experiment with BC2T W10G; 0.1 with BC2T Q11(I/L1); 0.1 with BC2T H9W; 1.1 with BC2T W10P; 0.7 with BC2T S8(I/L2); 0.1 with BC2T Q11V. Also, the ratio with BC2T W10N came to 1; with BC2T Q12R it was 0.1; with BC2T Q12(I/L1) it was 0.1; in the experiment with BC2T W10M it was 1; with BC2T H9Y, 0.1; with BC2T S8H, 0.7. Besides, the ratio with BC2T Q11N, with BC2T Q12N and in the experiment with BC2T H9R was 0.1 in each case.

B2: BC2-NbR106S (VHH)
VHH: B1 VHH with R106S
notes: headlock mutant of BC2-Nb; immobilised on beads in this assay
For B2, the ratio with BC2T Q12V is 0.2; with BC2T H9Q, 0.4; in the experiment with BC2T S8M, 1; with BC2T S8(I/L1), 0.6; with BC2T S8W, 0.9; with BC2T Q11C(Abu) it was 0.3. Further, the ratio with BC2T W10G was 1.1; with BC2T Q11(I/L1) it was 0.2; in the experiment with BC2T H9W, 0.1; in the experiment with BC2T W10P, 1.1; with BC2T S8(I/L2) it was 0.9; with BC2T Q11V, 0.2. Besides, the ratio in the experiment with BC2T W10N was found to be 1.1; with BC2T Q12R, 0.1; with BC2T Q12(I/L1), 0.2; with BC2T W10M it was 1.1; in the experiment with BC2T H9Y, 0.2; in the experiment with BC2T S8H, 0.9. The ratio with BC2T Q11N stood at 0.3; with BC2T Q12N, 0.2; with BC2T H9R, 0.2.
